Test: soluble on expression in E. coli; label from the status in PepcDB or PDB records

Sequence | soluble on expression in E. coli
MAQPKFVVAEIVEMEDHPDSDHLHICKVNVGFADPVQIVCGAPNAALGLKTVAALPGAMMPNGSLIFPGALRGVQSYGMLCSARELELPNAPEVRGIIELSSDLSAGKAFDSETMLEHHHHHH | not soluble
MKVIKSNKVTNKFKVSILISTYNKEKFIENTLNNILAQTMNKNDFELIIVDDCSTDNTLDIISKKIESFSNYQFVQLDENSGTPAKPRNLSIDLSKGKYIMFVDGDDWLPSDALENLYTLLKSNKTDYATGLTKYVYSDRIARSGVALSKIAYNKIGLKNFRKSFYHLAPAGRMMKSSVIKKNNIRFPEMIFGEDLQFFAEVFFNTKNISTTQDVVYCANRYDENISLVKSEASTVLNRIKWQNEAYRYLTKKYKNNKIFANLLYRIINKDILEGKFYKKGFIKEIDTLLPVFQDILNTIDNDFNSLDYADDTLNQHALTLIKNGDKEEIIDFVNFYLKKDEKPLYLSNDKYYYVYKENKYKKRMHIILQKIIKKDENIFLKLYSKNSELKYLEIKNRKDPTNYTVLEIKKHLFKTGEYTVQFKANELSKGKLALTVLDKDLNGAAIKSGMQFDFYETVNGNLGYIKKLEHHHHHH | soluble
MPGINGAGPSNFFWQWRTDGEPVTEREHDSSRSASSANSPELPPPASPAESGRQRLLRSSALSRQTREWLEATPARVQGATPPAEARQSPEAQQAERIVQELVRGGADLNNVRTMLRNVMDNNAVAFSRVERDILLQHFPNMPMTGISSDSVLANELRQRLRQTVRQQRIQSSTPARLADSSSGSSQRSLIGRSTMLMTPGRSSSSSAAASRTSVDRHPQGLDLESARLASAARHNHSANQTNEALRRLTQEGVDMERLRTSLGRYIMSLEPLPPDLRRALESVGINPFIPEELSLVDHPVLNFSAALNRMLASRQTTTNSPELPPLASSAESGRRRLLRSPPLLSGQREWIEQSMRQEAEPQSSRLNRAVRLAVMPPQNENEDNVAYAIRLRRLNPGADVSRVVASFITDPAARQQVVNDIRAALDIAPQFSQLRTISKADAESEELGFRDAADHPDNATSCLFGEELSLSNPDQQVIGLAVNPTDKPQPYSQEVNKALTFMDMKKLAQYLADKPEHPLNRQRLDAKNIAKYAFKIVP | not soluble
MGSDKIHHHHHHMNRNNFSHEIIEPIDNLDVNFKLFDDSGSYVANHWHNSLEIIYITSGDLQINMEGYTYNLKANECMFINSGIIHSTRCIYQNTSILLQVPLSFLNKYIPDFKNCYFDFKVNANDNNYKKNSSKVKLILENMREIKLSSPPAANLLFTSLLFELLFELYTNFKISVGNKNMKKTVLDLSKFEPVLEYTKINYKMPISINKIAKVAHLQPEYFCRKFKQYMGQTYLEYLNDVRISHIYKDLINTNDTLCSILEAHGFTNTKLFYRIFKEKFKCTPKHIRKKST | not soluble
MGRVLDRIEVVAEEIRGQAVQSEADCRLTDAAAGLLRDSGAIRLLQPRLYGGYEVHPREFAETVMGVAALDGASGWVTGIVGVHPWELAFADPQVQEEIWGEDNDTWMASPYAPMGVATPVDGGYVLKGRWSFSSGTDHCQWAFLGAMVGDGEGGIATPSSLHVILPRTDYQIVEDTWDVIGLRGTGSKDLIVDGAFVPGYRTLNAAKVMDGRAQKEAGRPEPLFNMPYSCMFPLGITAAVIGITEGALACHIAVQKDRVAITGQKIKEDPYVLSAIGESAAEINASRVSLIETADRFYDKVDAGKEITFEERAIGRRTQIAAAWRAVRAADEIFARAGGGALHYKTPMQRFWRDAHAGLAHAVHVPGPTNHASALTQLGGEPQGMMRAMI | soluble
MAHHHHHHMADTEAVAGTEAIPPTQNEQHDSAAKKKQANSYYYWHNHEKERAKVGDVAPMPKPVLLKKSDPSVLPASTASYPITKHSWCDGKKNVTVYIDTKLDEKETMVEDTLQVEFGKRRLTVSYIANVQTSKDVATQRRKQLVLCLAKAIKSKESSYKVKDPSGQIVIRLAKAEETSWWELAKKDGKLSDADDSDEENEGKADEGDGAAEEKA | soluble
MAHHHHHHEAVVTPWSVEGDVNYDKLIKDFGSHAIDEALLERIERVLGKKPHHFLRRGIFFSHRDLNLLLDVYESGQPFYLYTGRGPSSESMHMGHLIPFMFTKWLQDSFRVPLVIQMTDDEKFYFRNIPMEQVEAMTTENIKDIIAMGFDPELTFIFRDFDYMGCMYRTVAKIERAFTASQVRGCFGFAMEDNCGRWMFPAIQAAPSFSAAFPHIFPPSMGNVFCLIPQAIDQDPYFRLTRDIAPRLGYLKPAVIHSKFFPGLSGPKGKMSSSSGTAVLLTDTEKMVKDKINKHAFSGGGATKQEHFLLGANVEVDVPIQWLSFFLEDDEELARVKKEYMLGRIMTGEVKKLLINTITAITKTHQEKRKLVTDEDVQLFTSTRIMGPAKKAATQ | soluble
MSLHLKVFAKPKITYVENQTAMELEEQVTLTCEASGDPIPSITWRTSTRNISSEEKASWTRPEKQETLDGHMVVRSHARVSSLTLKSIQYTDAGEYVCTASNTIGQDSQSMYLEVQYAPKLQGPVAVYTWEGNQVNITCEVFAYPSATISWFRDGQLLPSSNYSNIKIYNTPSASYLEVTPDSENDFGNYNCTAVNRIGQESLEFVLVQADTPSSPSIDQVEPYSSTAQVQFDEPEATGGVPILKYKAEWRAMGEEVWHSKWYDAKEASMEGIVTIVGLKPETTYAVRLAALNGKGLGEISAASEFKTQPVREPSAEGHHHHHH | not soluble
MGEYIRYQGEEALGLIETLGMVPAIYGADSMLKAANVQLISYENVGSTLVTVMVKGDVAAVQASVDAGSVAAAGIGKLTAHNVMPRPIRPIGDIVSVHAITDDAPAGDGSRPRAMGLIETFGIVYVLEAADAMLKTADVELIGYENVASGYISVLVQGDVAACQAAVAAGVKAVQAMGTDVYSSVVIPTPHPDVAKITARYALENLLP | not soluble
MFYAQFVLAKKGPLAKVWLAAHWEKKLTKAQIFETDVPQAIEEVIRPKVKMALRTVGHLLLGIVRIYSKKTRYLLADTNEAYQKMKINFRNGFSFEVDIPENAEIEEDFSNFIDKYNITVPEFHDADYNEQLIMANVSRREDITMKETVNFNVEFNIDADFDGFGDEGESWQLDHLYGSVEPLSLRPTPQPESLMEVERDRDVAANGTEISRIDADSVIFSEGPTRPNLIFDNQEGGNFMPEMNLKVENQTLENDGGVGPADMFSSMIHPVREHAVADVQNDDGMDFDYQPFEPENVEPSRPQSPESFALEPLDVEHMEGRKKRQRKARKLIVDAETMISNDAFREQQEDFSDTMRVVEMAPPTRKMFNLCVSGDLQHLSREPGCKMFNRELLQRYRRCLVTREFDLNYTMQELSDSSSFTPSMEAQAEPWEDLNLNEDIQEDIQAQGPAVDEFFNDVRMDDDDDRQPAQEMDFGDNFDFPQEVEHQECAPIPIQSGFAGENKENEDAEDWSDPFGSSNSSRRGQLEAYGFGNTSTYKEDDGKWAKRAKHILKKVSADIETSGQADFSSVTATAKNRKQAAEQFYSLLTLAKSQAISVDQSEPYGEIVIRPGANFKEACPLSSPKPMGLGNTMENSTMRTPMRPV | not soluble
FSIAVTGATGQLGGLVIQHLMAAVPASQIIAIVRNVEKASTLADQGVEVRHGDYNQPESLQKAFAGVSKLLFISGPHYDNTLLIVQHANVVKAARDAGVKHIAYTGYAFAEESIIPLAHVHLATEYATRTTNIPYTFLRNALYTDFFVNEGLRASTESGAIVTNAGSGIVNSVTRNELALAAATVLTEEGHENKTYNLVSNQPWTFDELAQILSEVSGKKVVHQPVSFEEEKNFMVNAGVPEPFAEITAAIYDAISKGEASKTSDDLQKLIGSLTPLKETVKQALKM | soluble
FPTPKPVPAPQQAAQQQAVTASAEAALAPATPITVTTDTVQAVIDEKSGDLRRLTLLKYKATGDENKPFILFGDGKEYTYVAQSELLDAQGNNILKGIGFSAPKKQYSLEGDKVEVRLSAPETRGLKIDKVYTFTKGSYLVNVRFDIANGSGQTANLSADYRIVRDHSEPEGQGYFTHSYVGPVVYTPEGNFQKVSFSDLDDDAKSGKSEAEYIRKTPTGWLGMIEHHFMSTWILQPKGRQSVCAAGECNIDIKRRNDKLYSTSVSVPLAAIQNGAKAEASINLYAGPQTTSVIANIADNLQLAKDYGKVHWFASPLFWLLNQLHNIIGN | not soluble
MTERKPEVIITYCTQCQWLLRAAWLAQELLSTFSDDLGKVSLEPATGGAFRITCDGVQIWERKADGGFPEAKVLKQRVRDQIDPERDLGHNDRTQLEHHHHHH | soluble
MDKLNKITVPASQKLRQLQKMVHDIKNNEGGIMDKIKKLKVKGPPSVPRRDYALDSPADEEEQWSDDFDSDYENPDEHSDSEMYVMPAEETGDDSYEPPPAEQQTRVVHPALPFTRGEYVDNRSSQRHSPPFSKTLPSKPSWPSAKARLASTLPAPNSLQKPQVPPKPKDLLEDEADYVVPVEDNDENYIHPRESSPPPAEKAPMVNRSTKPNSSSKHMSPPGTVAGRNSGVWDSKSSLPAAPSPLPRAGKKPATPLKTTPVPPLPNASNVCEEKPVPAERHRGSSHRQDTVQSPVFPPTQKPVHQKPVPLPRFPEAGSPAADGPFHSFPFNSTFADQEAELLGKPWYAGACDRKSAEEALHRSNKDGSFLIRKSSGHDSKQPYTLVAFFNKRVYNIPVRFIEATKQYALGKKKNGEEYFGSVVEIVNSHQHNPLVLIDSQNNTKDSTRLKYAVKVS | soluble
MGHHHHHHSHATWHSALRGDAGLDSCRHVDSKCSGLHSSYRNLGTRQCPFSFLAEVMGKEPHFHSCLQVSHEFALNFNPSNPYCAGIQGIVDAYRQALPQVRLYGPTNFAPIINHVARFAQYFMLLLLTDGAVTDVEATREAVVRASNLPMSVIIVGVGGADFEAMEQLDADGGPLHTRSGQAAARDIVQFVPYRRFQNAPREALAQTVLAEVPTQLVSYFRAQGWAPLKPLPPSAKDPAQAPQA | not soluble
MAHHHHHHMMGHLTLPQLCLNVQHGKYSKKTQRPPTLSQRCVTTLISSRISRKLSPADCPTYTSTLLSAEGSTTENLKYNHRGPTTTFSATASNPIIFPN | not soluble
FYGEKATLNDGKLTSAELSQMTISGEKHVTEEEFGYCTEYVLKLGMSVSQEVEKQKFNQKKFESKVSKIATSVVVASDKDNGFVKVHAHTEKPNLLLELGLNYGEFELVKIENMNLQVAKQKPAPVKRNIKPAIVVTVPTEAFADRIREDYDIQAILCTDDTGAPSVFSLLEAVKLTHSSNIIFLLHDKNYFLSANEALKQLKHQKISADCVMTTNPIESLAALTVFNSDLNIHTNVKTMRRFVKGFASATITQASKKYKENRIEVNKGDFIAVANNSICVSEKELVQCVFNTIDHLLKKVKKPEFLLAYYGKDITAEEAEAMKEKIEKKYKLFCEFSPGEQKVFSYILGIQ | soluble
MSLILPPIIAASLPPPPGPHAVGYTFLVHPPLSPFSHSSPTLKSTGKPAFQIEEIGYCLFYPGLPEGKRGKEWVSWVPDPFWGVIRGYERFLGGKGGVSWLVKPLGYIAGRLQMPLHPRAPLKPTDKPYPLLIFSHGLAGTRHTYSQYCAALASEGYVVLAVEHRDGSGPAVVLPPEGESKESRVLYYTGVNDISWAEGEEHPVTHARTLQLDIRTREVYEAYHSFKRLLSHEGDLSIKIEGLEGGHSFGGGTILHLLQSPPPSTLLPSLPAKQAISLDPWLEPLPAPSDILQTPLPSSLPPTLVINSAGFTEWPEHWEKLVEIMKGKGILITMIGIGHQAFSDFPLLSPRGYSHAHSMILKVHELSTAFLNKKLLSGAALAGKTPDKGDYEKDEDGVKIKGKAAMKDGDVLLHFADREEGHHHHHH | soluble
